{
  "source": "paper doi:10.1101/2023.03.09.531992",
  "target": "full-length, extra-membrane clientized (Thr1273Glu) S tail, biotinylated (BLI) (SARS-CoV-2)",
  "experiment": "BLI",
  "data": [
    {"binder": "S. pombe αWD40 domain (N-terminal WD40 domain of α-COPI), wild type (domain or fragment) MEMLTKFESRSSRAKGVAFHPTQPWILTSLHNGRIQLWDYRMGTLLDRFDGHDGPVRGIAFHPTQPLFVSGGDDYKVNVWNYKSRKLLFSLCGHMDYVRVCTFHHEYPWILSCSDDQTIRIWNWQSRNCIAILTGHSHYVMCAAFHPSEDLIVSASLDQTVRVWDISGLRMKNAAPVSMSLEDQLAQAHNSISNDLFGSTDAIVKFVLEGHDRGVNWCAFHPTLPLILSAGDDRLVKLWRMTASKAWEVDTCRGHFNNVSCCLFHPHQELILSASEDKTIRVWDLNRRTAVQTFRRDNDRFWFITVHPKLNLFAAAHDSGVMVFKLE", "values": [
      {"measurement": "fold slower binding rate than the wild-type S tail", "value": 2.4, "unit": "fold"},
      {"measurement": "fold tighter binding than the wild-type S tail", "value": 11, "unit": "fold"}
    ]}
  ]
}
